Data set [1] in a line: Size exclusion chromatography (UP-SEC/SEC): monomer and HMW. The note with it: compared to Process 1 reference standard DS1-RS2. The class given is physicochemical. From the text: (§1) The PLBL2 KO, PLA2G15 KO, LPL KO and wild-type process control materials were thawed and purified using Process 1 (see Example 1), while ultrafiltration/diafiltration (UF/DF) followed Process 4 (see Example 3). […] High molecular weight (HMW) by size exclusion chromatography (SEC), charge variants by weak cation exchange chromatography (WCX), low molecular weight (LMW) by non-reduced capillary electrophoresis sodium dodecyl sulfate (CE-SDS), free fatty acids (FFA) and PS20 levels were monitored during the stability study at various time points.
(§2) Antibody preparations derived from the knock-out samples and controls were tested for the presence of the three lipases by specific ELISA methods: PLBL2 and PLA2G15 were measured using CHO-specific in-house methods and LPL was measured using a commercial anti-mouse ELISA kit. PS20 stability was measured in samples that were incubated for different lengths of time (several time points over a 12-month period) and different temperatures (5° C., 25° C., 40° C.) using two different methods. One method measured the total amount of PS20 present in the sample; PS20 was quantified directly by using a RP-HPLC-CAD method. The other method assessed the breakdown of PS20 by measuring the amount of free fatty acid, mainly lauric acid that was released by hydrolysis. […] The generated signal is directly proportional to the quantity of FFAs released. […]

Data set [2] can be described thus: Non-reduced capillary gel electrophoresis (CGE-NR / CE-SDS): main peak and LMW. In kind it is physicochemical. The note with it: compared to Process 1 reference standard DS1-RS2.
From the text: as §1, §2

For data set [3], the target named is T1, IL-23 (Homo sapiens, UniProt Q9NPF7).
T1 sequence (Q9NPF7 20-189): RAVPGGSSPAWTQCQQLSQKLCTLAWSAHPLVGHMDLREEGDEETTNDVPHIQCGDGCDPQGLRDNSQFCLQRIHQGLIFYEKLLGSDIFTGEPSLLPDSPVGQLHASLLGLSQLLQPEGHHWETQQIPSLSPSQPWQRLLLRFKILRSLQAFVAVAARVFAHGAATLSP
T1 sequence (P29460 23-328 partner): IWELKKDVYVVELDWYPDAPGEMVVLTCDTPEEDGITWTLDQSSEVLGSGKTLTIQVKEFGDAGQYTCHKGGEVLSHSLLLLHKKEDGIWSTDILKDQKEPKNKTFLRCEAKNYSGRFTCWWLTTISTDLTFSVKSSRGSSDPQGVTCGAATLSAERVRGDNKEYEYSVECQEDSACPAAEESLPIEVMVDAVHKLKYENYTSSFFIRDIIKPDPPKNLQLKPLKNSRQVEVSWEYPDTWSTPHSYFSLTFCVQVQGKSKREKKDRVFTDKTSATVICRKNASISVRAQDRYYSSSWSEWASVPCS
Kind of data set: Inhibition of IL-23 stimulated IL-17 production. The class given is cell-based. The note with it: read-out: inhibition of IL-23 stimulated IL-17 production, inhibitory concentration (IC) 50.

The target in a further data set is T2, IL-12 (Homo sapiens, UniProt P29459+P29460).
T2 sequence (P29459 23-219): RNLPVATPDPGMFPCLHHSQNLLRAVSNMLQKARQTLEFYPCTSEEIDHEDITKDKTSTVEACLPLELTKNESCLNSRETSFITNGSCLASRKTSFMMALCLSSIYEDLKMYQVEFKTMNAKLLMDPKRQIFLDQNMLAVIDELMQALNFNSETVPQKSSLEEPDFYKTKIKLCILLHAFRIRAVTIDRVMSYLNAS
T2 sequence (P29460 23-328): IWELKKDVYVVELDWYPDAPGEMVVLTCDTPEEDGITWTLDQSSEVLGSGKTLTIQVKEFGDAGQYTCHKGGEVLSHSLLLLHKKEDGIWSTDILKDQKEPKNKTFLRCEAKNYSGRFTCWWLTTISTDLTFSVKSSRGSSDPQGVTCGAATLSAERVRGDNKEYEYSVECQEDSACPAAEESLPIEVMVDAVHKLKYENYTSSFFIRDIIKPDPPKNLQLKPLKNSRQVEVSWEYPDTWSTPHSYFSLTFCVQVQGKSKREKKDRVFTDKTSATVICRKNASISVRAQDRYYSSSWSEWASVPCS
Kind of data set: IL-12 effect / IL-12 stimulated IFN-γ production. The class given is cell-based.

Data set [4] has as its target T1, IL-23. Kind of data set: Binding to human IL-23.
The next data set relates to healthy adult subjects. Kind of data set: Anti-drug antibody (ADA) incidence after single 150 mg SC dose, bridging electrochemiluminescence immunoassay. The class given is in vivo, human. The note with it: 113 days. The protocol: A single-dose, randomized, two-parallel-arm, open-label, multi-center study in healthy adult subjects was carried out. Subjects received a risankizumab 150 mg dose by subcutaneous (SC) injection in the abdomen using a 150 mg/ml formulation in a prefilled syringe (PFS). Arm 1: Risankizumab 150 mg/mL formulation in PFS produced by Process 4 (150 mg×1 SC injection) (test, N=132); Arm 2: Risankizumab 150 mg/mL formulation in PFS produced by Process 2 (150 mg×1 SC injection) (reference, N=130). Serial blood samples for anti-drug antibody (ADA) were collected over a period of 113 days. […]
The presence of ADA was determined using a validated titer based bridging electrochemiluminescence immunoassay as described below.
This is a qualitative assay designed to detect anti-risankizumab antibodies in human serum. Anti-drug antibodies (ADA) against risankizumab in human serum were detected using an electrochemiluminescent (ECL) immunoassay. […] This complex was bound to a blocked MSD-streptavidin (MSD-SA) plate and detected by a chemiluminescent signal that was generated when voltage was applied. […]
Samples were analyzed in a tiered approach. […]
The confirmatory assay measured the percent inhibition of ECL immunoassay signals of screened positive samples when spiked with excess risankizumab. […]

The next data set can be described thus: ADCC activity. From the text: (§3) Risankizumab has been designed with Leu234Aa and Leu235Aa mutations in Fc to diminish its Fc effector binding activity.
The next data set is described as follows: CDC activity.
From the text: as §3

Data set [5] in a line: Hitchhiker protein spiking study, PS20-CAD subspecies method. The class given is biochemical. The note with it: for activity to PS20 degradation: DP3 and DP4 materials spiked with enzyme (summary); for PS20 degradation: ~30 hours incubation at 25° C. An excerpt:
PS20-CAD subspecies method was used. This method was originally developed to qualitatively determine subspecies composition and to quantify the PS20 subspecies relative to a PS20 manufacturing standard. The HPLC system used in this study was an Agilent 1260 II infinity HPLC equipped with a quaternary pump, mobile phase degassing unit, refrigerated auto sampler, temperature controlled column compartment, and a Thermo Scientific charged aerosol detector (CAD). Data was collected by Waters Empower acquisition system. Methods for detecting PS20 using Charged Aerosol Detector (CAD) are also described in Example 10.
Since the system takes 70 minutes to finish each injection (labeled as “injection” in Table 19), repeated injections measured the degradation patterns (profiles) at different incubation times. All samples were kept in a 25° C. autosampler during the entire test.
PS20-CAD subspecies method described above was used.
The solution was mixed and tested. All samples were studied at 25° C.
The solution was mixed and tested. All samples were studied at 25° C. […] More information can be found in Table 21A.
The solution was mixed and tested. More information regarding the study design can be found in Table 21A.
The solution was mixed and tested. More information regarding the study design can be found in Table 21B below.
The solution was mixed and tested. More information regarding the study design can be found in Table 21B.

Experimental findings from patent US20250313619A1, “RISANKIZUMAB COMPOSITIONS” (ABBVIE INC., priority 0001, published 2025) are described below.

Turning to “DS4-005: risankizumab Process 4 drug substance batch”, the “HMW peak by UP-SEC” value in [1] is given as “smaller”. The “LMW peak by CGE-NR” value in [2] is recorded as “smaller”.
As for “Immunoglobulin G1, anti-(human interleukin 23 subunit p19) (human-Mus musculus heavy chain), disulfide with human-Mus musculus κ-chain, dimer [risankizumab]”, in the data set with IL-23 [3], the IC50 was less than 10 pM. Also, in the data set with IL-12, the “inhibition of IL-12 stimulated IFN-γ production” value was “does not inhibit”. The “effect on IL-12” value with IL-12 (maximum tested concentration (33 nM)) was “does not affect”. Moreover, the “binding to human IL-23” value with IL-23 [4] was “high affinity”. Also, the “treatment-emergent ADA incidence” value in the data set on healthy adult subjects was “low”. For the same molecule, the ADCC activity entry in the data set “ADCC activity” is “does not possess”. In addition, the COC activity result in “CDC activity” is on record as “does not possess”.
“ustekinumab: comparator in the same IL-23 stimulated IL-17 production system [reference compound]”: the IC50 in the data set with IL-23 [3] came to 167 pM.

B1: PLA2G15: hitchhiker protein enzyme spiked into DP3/DP4 material (protein)
chain: VQRHPPVVLVPGDLGNQLEAKLDKPKVVHYLCSKRTDSYFTLWLNLELLLPVIIDCWIDNIRLVYNRTSRATQFPDGVDVRVPGFGETFSLEFLDPSKRTVGSYFHTMVESLVGWGYTRGEDLRGAPYDWRRAPNENGPYFLALREMIEEMYQMYGGPVVLVAHSMGNMYTLYFLQRQPQAWKDKYIHAFISLGAPWGGVAKTLRVLASGDNNRIPVIGPLKIREQQRSAVSTSWLLPYNHTWSHDKVFVHTPTTNYTLRDYHQFFQDIRFEDGWFMRQDTEGLVEAMMPPGVELHCLYGTGVPTPDSFYYESFPDRDPKICFGDGDGTVNLESVLQCQAWQSRQEHKVSLQELPGSEHIEMLANATTLAYLKRVLFEP
Regarding B1, the “PS20 degradation pattern (profile) versus pattern observed in DP2 materials” value in data set [5] (DP3 spiked with 1 μg/mL PLA2G15, 25° C.) is listed as “matches”. Further, the “PS20 degradation rate versus spiking level” value in [5] (DP4 spiked with 0.01875-0.6 ng/mg PLA2G15, 25° C.) is recorded as “concentration dependent PS20 degradation rates were observed”.

B2: PLA2G7: Recombinant human PLA2G7/PAF-AH/LP-PLA2 protein (5106-PL-010, Bio-techne) (protein, UniProt Q13093 22-441, looked up)
Platelet-activating factor …: FDWQYINPVAHMKSSAWVNKIQVLMAAASFGQTKIPRGNGPYSVGCTDLMFDHTNKGTFLRLYYPSQDNDRLDTLWIPNKEYFWGLSKFLGTHWLMGNILRLLFGSMTTPANWNSPLRPGEKYPLVVFSHGLGAFRTLYSAIGIDLASHGFIVAAVEHRDRSASATYYFKDQSAAEIGDKSWLYLRTLKQEEETHIRNEQVRQRAKECSQALSLILDIDHGKPVKNALDLKFDMEQLKDSIDREKIAVIGHSFGGATVIQTLSEDQRFRCGIALDAWMFPLGDEVYSRIPQPLFFINSEYFQYPANIIKMKKCYSPDKERKMITIRGSVHQNFADFTFATGKIIGHMLKLKGDIDSNVAIDLSNKASLAFLQKHLGLHKDFDQWDCLIEGDDENLIPGTNINTTNQHIMLQNSSGIEKYN
Take B2: in [5], the “activity to PS20 degradation” value is reported as “moderate activities”. Moreover, the “PS20 degradation pattern (profile) versus pattern observed in DP2 materials” value in [5] (DP3 spiked with 5 μg/mL enzyme, 25° C.) is given as “very different”. In [5] (DP3 spiked with 5 μg/mL enzyme), the PS20 degradation result is “caused PS20 degradation with a relatively high activity”.

B3: PRDX6: Recombinant human Peroxiredoxin 6 protein (ab87631, Abcam) (protein, UniProt P30041 2-224, looked up)
Peroxiredoxin-6: PGGLLLGDVAPNFEANTTVGRIRFHDFLGDSWGILFSHPRDFTPVCTTELGRAAKLAPEFAKRNVKLIALSIDSVEDHLAWSKDINAYNCEEPTEKLPFPIIDDRNRELAILLGMLDPAEKDEKGMPVTARVVFVFGPDKKLKLSILYPATTGRNFDEILRVVISLQLTAEKRVATPVDWKDGDSVMVLPTIPEEEAKKLFPKGVFTKELPSGKKYLRYTPQP
Consider B3, for which the “activity to PS20 degradation” value in data set [5] is “very low activities”. Moreover, the PS20 degradation result in [5] (DP3 spiked with 5 μg/mL enzyme) is listed as “no detectable PS20 degradation”.
